Tests used:
[1] = system: signal pathway KRas/Raf/ERK/c-myc in KRas mutant-type cells HCT116; experiment: Western blot of EGFR downstream signal pathway, HCT116; format: cell-based, human; details: 10 and 20 μg/mL, 24 hours, compared with control TKDm
Procedure: (§1) • (1) The colorectal cancer cells HCT116 (KRas G13D) and HT29 (KRas wt) were respectively spread in six-well plates, 500,000 cells per well. […] Then, the digestion was stopped with 1 mL of complete culture solution per well, the cell suspension was collected into a 1.5 mL EP tube, and centrifuged at the room temperature and 300 g for 3 minutes to collect cells. The cells were resuspended with 1 mL of PBS, and repeatedly centrifuged once. • (3) The supernatant was removed, 100 μL of lysate was added in each group (item number: P0013G; purchased from Beyotime Biotechnology Company). The cells were lysed on ice, vortically vibrated every 5 minutes, and centrifuged at 4° C. and 12,000 rpm for 30 minutes after being lysed for 30 minutes, and the supernatant was collected in a new 1.5 mL EP tube. • (4) The protein concentration was measured by the BCA method, and 20 μg of protein was taken from each group for SDS denaturation gel electrophoresis, transferred and blocked with 5% skim milk for 1 hour.

[2] = system: signal pathway KRas/Raf/ERK/c-myc in KRas wild-type cells HT29; experiment: Western blot of EGFR downstream signal pathway, HT29; format: cell-based, human; details: 10 and 20 μg/mL, 24 hours, compared with control TKDm
Procedure: as §1

[3] = system: KRas wild-type (HT29) colorectal cancer; experiment: In-vivo tumor formation experiment, HT29 subcutaneous tumor; set-up: species or system mice; details: seven times
Procedure: (§2) • (1) Balb/c nude mice, female, 4 weeks to 5 weeks old, purchased from Guangdong Laboratory Animal Center and raised in Laboratory Animal Center of Sun Yat-sen University, were used in this experiment. […] After counting, 7.5 million HT29 and HCT116 cells were taken respectively, washed twice with PBS, centrifuged at 300 g for 5 minutes after fishing each washing, and collected. • (3) The cell dilution buffer solution having the composition of PBS: matrix glue (Corning Company)=1:1 was prepared to resuspend the cells. […] In the experiment, the administration volume was 150 μL, the administration frequency was once every three days at a fixed time, and the administration was continued for seven times. • (6) After the administration, each mouse was injected with 150 μL of tribromoethanol, and then killed by cervical dislocation. […]
(§3) • (1) Balb/c nude mice, female, 4 weeks to 5 weeks old, purchased from Guangdong Laboratory Animal Center and raised in Laboratory Animal Center of Sun Yat-sen University, were used in this experiment. The experimental mice were divided into two groups, with five mice in each group, which were respectively a phosphate buffer solution (PBS) control group and a […]. • (2) The HT29 and HCT116 cells in the logarithmic phase were digested with pancreatin, the digestion was stopped with the complete culture solution, and then the cells were counted. […]

[4] = system: normal intestinal epithelial cells FHC; experiment: Flow cytometry of tumor cell targeting, normal cells FHC; format: cell-based, human; details: tested as 60 nM TKD-Cy5, 1 hour, Lys 05 10 μM
Procedure: (§4) Wherein, the protein C18 column (25 cm×10 mm) was used, with sample injection of 2×400 μL each time, and gradient elution was carried out for 30 minutes, 0.1% TFA (trifluoroacetic acid) solution to MeCN (acetonitrile): H2O (0.1% TFA)=70:30, and a flow rate was 4 mL/min. • (4) Target color tape peaks were collected, and the retention time of a labeled polypeptide was longer than that of an unlabeled polypeptide. • (5) The TKD-Cy5 molecule was diluted to 60 μM, and stored in a PBS solution, and kept in the dark at −20° C. 2. […] The cells were treated with corresponding drugs, namely, in the experimental groups, the cells were treated with 60 nM TKD-Cy5 coupling molecule, and in the control groups, the cells were treated with the Cy5 single molecule with corresponding concentration. The lysosome inhibitor Lys 05 with the final concentration of 10 μM was added into the control groups and the experimental groups at the same time, and the final volume of the culture solution in each well was 1 mL. […] The cells were resuspended with the PBS buffer solution, and centrifuged again, and the supernatant was discarded. The operation was repeated for three times. Finally, the cleaned cells were resuspended in 0.2 mL of PBS, wrapped with foil paper, and then analyzed on the flow cytometer (company: BECKMAN COULTER; model: Cytoflex), with the fluorescence channel of APC-A.

HCT116 cells = experiment: Flow cytometry of tumor cell targeting, HCT116; format: cell-based, human; details: tested as 60 nM TKD-Cy5, 1 hour, Lys 05 10 μM
Procedure: as §4

HT29 (KRas wt) = experiment: Cell clone formation experiment, HT29; details: 10 and 20 μg/mL
[5] = system: KRas mutant-type (HCT116) colorectal cancer; experiment: In-vivo tumor formation experiment, HCT116 subcutaneous tumor; set-up: species or system mice; details: seven times
Procedure: as §2, §3

[6] = system: KRas protein in SW1116 (KRas G12D); experiment: Western blot of KRas degradation in SW1116 cells; format: cell-based
Description: Cell lines used in this embodiment were SW1116 (KRas G12D), SW480 (KRas G12V) and H358 (KRas G12C), all of which came from ATCC and have item numbers of CCL-233, CCL-228 and CRL-5800 respectively. The treatment process of each cell was consistent with that described in the influence of administration time on degradation of KRas above.

HCT116 (KRas G13D) = experiment: Cell clone formation experiment, HCT116; details: 10 and 20 μg/mL
[7] = Residence time in vivo (serum western blot); set-up: species or system mice
Procedure: • (1) Balb/c nude mice, female, 4 weeks to 5 weeks old, purchased from Guangdong Laboratory Animal Center and raised in Laboratory Animal Center of Sun Yat-sen University, were used in this experiment. […] The serum protein concentration was measured by the BCA method (as described above). 20 μg of serum protein was respectively taken for the WB experiment (as described above), and whole serum protein gel running and Coomassie brilliant blue staining. • (4) Experimental results were shown in FIG. 19.

[8] = TKD 25 and 50 mg/kg intraperitoneal, once every three days, vs PBS

B1: TKD: fusion protein: tumour-cell-penetrating peptide BR2, anti-KRas nanobody VHH and lysosome recognition peptide CTM; SEQ ID NO.4 (protein)
chain: RAGLQFPVGRLLRRLLRDVQLQESGGGLVQAGGSLRLSCVASGRTFSTYPTGWFRQAPGKEREFVARINLSGGITNYADSVKGRFTISRDNAKNTVYLQMNSLKPEDTAVYYCGGGSTTWAGGIPTNFDYWGQGTQVTVSSGRKFERQKILDQRFFE
For B1, the “inhibition of activation of EGFR downstream signal pathway KRas/Raf/ERK/c-myc (western blot)” value [1] was “could significantly inhibit the activation of the EGFR downstream signal pathway KRas/Raf/ERK/c-myc”, the “inhibition of activation of EGFR downstream signal pathway KRas/Raf/ERK/c-myc (western blot)” value [2] was “could significantly inhibit the activation of the EGFR downstream signal pathway KRas/Raf/ERK/c-myc” and the “inhibition of tumor growth (tumor weight)” value [3, 8] was “could significantly inhibit the growth”. The “tumor growth inhibition, TKD-50 mg/kg group compared with TKD-25 mg/kg group” value ([3]; intraperitoneal) was “had a better effect than the TKD-25 mg/kg group”, the “entry into cells (flow cytometry, Cy5 fluorescence)” value [4] was “could not enter the normal colorectal epithelial cells” and the “entry into cells (flow cytometry, Cy5 fluorescence)” value (HCT116 cells) was “could specifically recognize and pass through the cell membrane to enter the colorectal cancer cells”. The “inhibition of clone growth” value (HT29 (KRas wt)) was “could significantly inhibit the growth”, the “inhibition of tumor growth (tumor weight)” value [5, 8] was “could significantly inhibit the growth” and the “tumor growth inhibition, TKD-50 mg/kg group compared with TKD-25 mg/kg group” value ([5]; intraperitoneal) was “had a better effect than the TKD-25 mg/kg group”. For the same molecule, the “degradation of mutated KRas protein (western blot)” value [6] was “could induce the degradation of the KRas proteins in different mutation states, and the degradation effect was remarkable”, the “inhibition of clone growth” value (HCT116 (KRas G13D)) was “could significantly inhibit the growth” and the “detection in serum after administration (western blot)” value ([7]; 50 mg/kg intraperitoneal once, 3 days after administration) was “could still be detected”. For the same molecule, the “half-life period in vivo” value ([7]; inferred from serum detection 3 days after 50 mg/kg) was “long”.
